According to patent US20050260177A1:

Legend:
[1] = biological target: Ra12-C888P fusion protein (human C888P fused to Mycobacterium tuberculosis Ra12); assay: ELISA, RC888P on plate, serum 1:64000, well 2
[2] = biological target: Ra12-C888P fusion protein (human C888P fused to Mycobacterium tuberculosis Ra12); assay: ELISA, RC888P on plate, serum 1:1024000, well 2
[3] = biological target: Ra12-C888P fusion protein (human C888P fused to Mycobacterium tuberculosis Ra12); assay: ELISA, RC888P on plate, serum 1:64000, well 1
[4] = biological target: Ra12-C888P fusion protein (human C888P fused to Mycobacterium tuberculosis Ra12); assay: ELISA, RC888P on plate, serum 1:512000, average of 2 wells
[5] = biological target: Ra12-C888P fusion protein (human C888P fused to Mycobacterium tuberculosis Ra12); assay: ELISA, RC888P on plate, serum 1:32000, well 1
[6] = biological target: Ra12-C888P fusion protein (human C888P fused to Mycobacterium tuberculosis Ra12); assay: ELISA, RC888P on plate, serum 1:512000, well 1
[7] = biological target: Ra12-C888P fusion protein (human C888P fused to Mycobacterium tuberculosis Ra12); assay: ELISA, RC888P on plate, serum 1:1000, average of 2 wells
[8] = biological target: Ra12-C888P fusion protein (human C888P fused to Mycobacterium tuberculosis Ra12); assay: ELISA, RC888P on plate, serum 1:2000, average of 2 wells
[9] = biological target: Ra12-C888P fusion protein (human C888P fused to Mycobacterium tuberculosis Ra12); assay: ELISA, RC888P on plate, serum 1:128000, average of 2 wells
[10] = biological target: Ra12-C888P fusion protein (human C888P fused to Mycobacterium tuberculosis Ra12); assay: ELISA, RC888P on plate, serum 1:16000, well 2
[11] = biological target: Ra12-C888P fusion protein (human C888P fused to Mycobacterium tuberculosis Ra12); assay: ELISA, RC888P on plate, serum 1:4000, average of 2 wells
[12] = biological target: Ra12-C888P fusion protein (human C888P fused to Mycobacterium tuberculosis Ra12); assay: ELISA, RC888P on plate, serum 1:256000, well 1
[13] = biological target: Ra12-C888P fusion protein (human C888P fused to Mycobacterium tuberculosis Ra12); assay: ELISA, RC888P on plate, serum 1:512000, well 2
[14] = biological target: Ra12-C888P fusion protein (human C888P fused to Mycobacterium tuberculosis Ra12); assay: ELISA, RC888P on plate, serum 1:8000, well 2
[15] = biological target: Ra12-C888P fusion protein (human C888P fused to Mycobacterium tuberculosis Ra12); assay: ELISA, RC888P on plate, serum 1:1000, well 1
[16] = biological target: Ra12-C888P fusion protein (human C888P fused to Mycobacterium tuberculosis Ra12); assay: ELISA, RC888P on plate, serum 1:4000, well 2
[17] = biological target: Ra12-C888P fusion protein (human C888P fused to Mycobacterium tuberculosis Ra12); assay: ELISA, RC888P on plate, serum 1:128000, well 1
[18] = biological target: Ra12-C888P fusion protein (human C888P fused to Mycobacterium tuberculosis Ra12); assay: ELISA, RC888P on plate, serum 1:4000, well 1
[19] = biological target: Ra12-C888P fusion protein (human C888P fused to Mycobacterium tuberculosis Ra12); assay: ELISA, RC888P on plate, serum 1:1024000, well 1
[20] = biological target: Ra12-C888P fusion protein (human C888P fused to Mycobacterium tuberculosis Ra12); assay: ELISA, RC888P on plate, serum 1:16000, well 1
[21] = biological target: Ra12-C888P fusion protein (human C888P fused to Mycobacterium tuberculosis Ra12); assay: ELISA, RC888P on plate, serum 1:8000, well 1
[22] = biological target: Ra12-C888P fusion protein (human C888P fused to Mycobacterium tuberculosis Ra12); assay: ELISA, RC888P on plate, serum 1:1000, well 2
[23] = biological target: Ra12-C888P fusion protein (human C888P fused to Mycobacterium tuberculosis Ra12); assay: ELISA, RC888P on plate, serum 1:16000, average of 2 wells
[24] = biological target: Ra12-C888P fusion protein (human C888P fused to Mycobacterium tuberculosis Ra12); assay: ELISA, RC888P on plate, serum 1:2000, well 1
[25] = biological target: Ra12-C888P fusion protein (human C888P fused to Mycobacterium tuberculosis Ra12); assay: ELISA, RC888P on plate, serum 1:32000, well 2
[26] = biological target: Ra12-C888P fusion protein (human C888P fused to Mycobacterium tuberculosis Ra12); assay: ELISA, RC888P on plate, serum 1:2000, well 2
[27] = biological target: Ra12-C888P fusion protein (human C888P fused to Mycobacterium tuberculosis Ra12); assay: ELISA, RC888P on plate, serum 1:128000, well 2
[28] = biological target: Ra12-C888P fusion protein (human C888P fused to Mycobacterium tuberculosis Ra12); assay: ELISA, RC888P on plate, serum 1:256000, well 2
[29] = biological target: Ra12-C888P fusion protein (human C888P fused to Mycobacterium tuberculosis Ra12); assay: ELISA, RC888P on plate, serum 1:256000, average of 2 wells
[30] = biological target: Ra12-C888P fusion protein (human C888P fused to Mycobacterium tuberculosis Ra12); assay: ELISA, RC888P on plate, serum 1:8000, average of 2 wells
[31] = biological target: Ra12-C888P fusion protein (human C888P fused to Mycobacterium tuberculosis Ra12); assay: ELISA, RC888P on plate, serum 1:32000, average of 2 wells
[32] = biological target: Ra12-C888P fusion protein (human C888P fused to Mycobacterium tuberculosis Ra12); assay: ELISA, RC888P on plate, serum 1:1024000, average of 2 wells
[33] = biological target: Ra12-C888P fusion protein (human C888P fused to Mycobacterium tuberculosis Ra12); assay: ELISA, RC888P on plate, serum 1:64000, average of 2 wells

Preimmune sera (antibody) showed an ELISA absorbance at 450 nm [1] of 0.05 OD450, an ELISA absorbance at 450 nm [2] of 0.06 OD450 and an ELISA absorbance at 450 nm [3] of 0.06 OD450. For the same substance, the ELISA absorbance at 450 nm [4] was 0.06 OD450, the ELISA absorbance at 450 nm [5] was 0.06 OD450 and the ELISA absorbance at 450 nm [6] was 0.06 OD450. It also gave an ELISA absorbance at 450 nm [7] of 0.07 OD450, an ELISA absorbance at 450 nm [8] of 0.06 OD450 and an ELISA absorbance at 450 nm [9] of 0.06 OD450. For the same substance, the ELISA absorbance at 450 nm [10] was 0.05 OD450, the ELISA absorbance at 450 nm [11] was 0.06 OD450 and the ELISA absorbance at 450 nm [12] was 0.06 OD450. For the same substance, the ELISA absorbance at 450 nm [13] was 0.05 OD450, the ELISA absorbance at 450 nm [14] was 0.06 OD450 and the ELISA absorbance at 450 nm [15] was 0.09 OD450. It also gave an ELISA absorbance at 450 nm [16] of 0.05 OD450, an ELISA absorbance at 450 nm [17] of 0.06 OD450 and an ELISA absorbance at 450 nm [18] of 0.06 OD450. It also gave an ELISA absorbance at 450 nm [19] of 0.06 OD450, an ELISA absorbance at 450 nm [20] of 0.06 OD450 and an ELISA absorbance at 450 nm [21] of 0.06 OD450. It also gave an ELISA absorbance at 450 nm [22] of 0.06 OD450, an ELISA absorbance at 450 nm [23] of 0.06 OD450 and an ELISA absorbance at 450 nm [24] of 0.06 OD450. It also gave an ELISA absorbance at 450 nm [25] of 0.05 OD450, an ELISA absorbance at 450 nm [26] of 0.05 OD450 and an ELISA absorbance at 450 nm [27] of 0.06 OD450. For the same substance, the ELISA absorbance at 450 nm [28] was 0.06 OD450, the ELISA absorbance at 450 nm [29] was 0.06 OD450 and the ELISA absorbance at 450 nm [30] was 0.06 OD450. For the same substance, the ELISA absorbance at 450 nm [31] was 0.06 OD450, the ELISA absorbance at 450 nm [32] was 0.06 OD450 and the ELISA absorbance at 450 nm [33] was 0.06 OD450.
